Measurements reported in paper PMC4345311.
Numbering of substitutions follows the chain as printed.

B1: PR10.1-8E-M1 (structured_RNA)
RNA: GGGUUACCUAGGUGUAGAUGCUCUUAAGUGUAACUUCUCAUAACAUCCGGAGGCACGUACUUCCGGGGACCUAAGUGACGUCUGAACUGCUUCGAA
B2: PR10.1-8E-M2 (structured_RNA)
RNA: GGGUUACCUAGGUGUAGAUGCUCUUAAGUGUAACUUCUCAUAACAUCCGGAGGCUUUUAGAAGGCCCGACCUAAGUGACGUCUGAACUGCUUCGAA
B3: PR10.1-8E-M4 (structured_RNA)
RNA: B1 RNA with C23A, U24C, U25G, A26U, A55U, C56U, G57U
B4: PR10.1-8E-M5 (structured_RNA)
RNA: B1 RNA with A18U, U19A, G20C, C21G, U22A, A55U, C56U, G57U
B5: PR10.1-8E-M6 (structured_RNA)
RNA: B1 RNA with A27U, G28C, U29A, G30C, U31A, A55U, C56U, G57U
B6: PR10.1-8E-M9 (structured_RNA)
RNA: GGGUUACCUAGGUGUAGAUGCUCUUAAGUGUAACUUCUCAUAACAUCCGGAGGCUUUUACUUCCGGGGUGGAUCCAUUGGUCUGAACUGCUUCGAA
B7: PR10.1-8E-M10 (structured_RNA)
RNA: GGCAGUGGAUCCAGUAGAUGCUCUUAAGUGUAACUUCUCAUAACAUCCGGAGGCUUUUACUUCCGGGGACCUAAGUGACGUCUGAACUGCUUCGAA
B8: PR10.1-8E-D3CR (structured_RNA)
RNA: GGGUUACCUAGGUGUAGAUGCUCUUAAGUGUAACUUCUCAUAACAUCCGGAGGCUUUUACUUCCGGGG
B9: PR10.1-8E-M8 (structured_RNA)
RNA: GGGUUACCUAGGUGUAGUGUGACUUAUCGUAAACUUCUCAUAACAUCCGGAGGCUUUUACUUCCGGGGACCUAAGUGACGUCUGAACUGCUUCGAA

Each binder was assayed against HIV-1 protease (PR), wild-type (HIV-1, UniProt P04585 489-587) (assay: filter binding).
B1: no binding.
B2: no binding.
B3: no binding.
B4: no binding.
B5: no binding.
B6: no binding.
B7: no binding.
B8: no binding.
With B9 the Kd was 386 ± 63 nM.
